Biological target: Kv1.3 voltage-gated potassium channel on T cells in human whole blood (human) (UniProt P22001)
Assay: cell-based or functional assay

Sequence of Kv1.3 voltage-gated potassium channel on T cells in human whole blood (human) (P22001 whole entry): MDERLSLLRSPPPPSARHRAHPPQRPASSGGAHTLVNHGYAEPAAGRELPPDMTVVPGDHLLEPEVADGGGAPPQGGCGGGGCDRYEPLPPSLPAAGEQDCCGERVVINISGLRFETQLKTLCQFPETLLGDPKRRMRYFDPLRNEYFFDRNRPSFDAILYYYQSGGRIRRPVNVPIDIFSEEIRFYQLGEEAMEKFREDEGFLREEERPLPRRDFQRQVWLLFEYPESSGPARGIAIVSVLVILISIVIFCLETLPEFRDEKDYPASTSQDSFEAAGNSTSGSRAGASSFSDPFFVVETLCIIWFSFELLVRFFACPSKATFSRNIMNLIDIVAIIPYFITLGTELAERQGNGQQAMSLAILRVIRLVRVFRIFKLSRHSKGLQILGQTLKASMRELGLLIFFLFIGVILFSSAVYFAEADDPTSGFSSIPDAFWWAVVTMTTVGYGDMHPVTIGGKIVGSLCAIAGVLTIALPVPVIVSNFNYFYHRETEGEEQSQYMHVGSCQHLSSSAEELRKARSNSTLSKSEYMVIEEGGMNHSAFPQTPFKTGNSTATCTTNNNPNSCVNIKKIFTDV

| Substance | Potency Relative to ShK (WB, IL2) | WB (IFNg) IC50 | WB (IL-2) IC50 |
| --- | --- | --- | --- |
| 20 kDa-PEG-ShK (peptide) | 5.67 fold | 0.84 nM | 0.38 nM |
| Monovalent Fc/Fc-L10-ShK[2-35] heterodimer (Fc fusion) | 32.1 fold | 5.2 nM | 2.15 nM |
| ShK(1-35) (peptide) | 1 fold | 0.078 nM | 0.067 nM |

From patent US20130189283A1
